Reference: the supplement of paper PMC9170038

tested on: MS2 coat protein; assay: apparent KD of MS2 coat protein, switch OFF state (with FMN for OFF switches, without FMN for ON switches); designed switch direction (-1 OFF switch, 1 ON switch): 1; higher = weaker reporter binding; settings: FMN input: 0 or 200 uM; Eterna round: R93 (includes R88 designs)
Outline: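 Designed RNA switches were transcribed on-chip from Illumina sequencing clusters. They were then titrated with SNAP-549-labelled MS2 coat protein (twofold steps, 0.7 or 1.5 nM to 3 µM; 0.8–1.5 h to 10–20 min per step) in 100 mM Tris-HCl pH 7.5, 80 mM KCl, 4 mM MgCl2, without or with constant ligand. Apparent KD is the per-design median of normalised cluster binding-curve fits.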

| Sequence | apparent KD of MS2 coat protein [nM] |
| --- | --- |
| AACUACAUUAUGAAGGAUAUCCACAUCUAGACAUGAGGAUCACCCAUGUAUACUUAGAUCAUACAGGAGAAGGUCAAGGGUGAUU [JR_SS002_Sub1208] | 131 |
| AACAGACAUGAGGAUCACCCAUGUAGGAUUAUGGGAGGAUAUACAAAGACGAGAGUCAGAGUAGAAGGCCUAGGAA [salish99-ss1-147] | 57.9 |
| GAGCCGCGGGCACAGGAUAUGCUCGGGCAAACAUGAGGAUCACCCAUGUGCGGCCUAAAUACGACGCAGAAGGGUGCUGGUGUGU [Orxeis] | 147 |
| GAAAAACAUGAGGAUCACCCAUGUAGAAAUAUGGGAGGAUAUUCAAAGACGAAAGUCAAAGAAGAAGGCCUAAAAG [Mat - Same State 1 - Eli mod - 36] | 113 |
| GAAAAUAAAAGACAGGAUAUCCAAAAGAAAACAUGAGGAUCACCCAUGUAAAGAAAAUAAAAAUGGGAGAAGGGUCAAAUAAAAG [Mat - Same State 2 - JL mod - D52] | 56.6 |
| AAGCAACAUGAGGAUCACCCAUGUAGCAGGGUCAGAGGAUAUUUGAGCUUGGUAAGGGUUAAAGAAGGUUGAUAAA [Alabeti] | 55.5 |
| AAGAAACAUGAGGAUCACCCAUGUAAGAUAAACACAGGAUAUGCAAAAGAAACAAAGAAAGCAGAAGGGUGAAGAA [Mat - Same State 1 - Tesla mod - 49] | 48.4 |
| AAAAGACAUGAGGAUCACCCAUGUCGAAAGACAUGAGGAUAUGUACAGACUUCGGUCUGUACAGAAGGCAUGUAAA [SS1 - 1068] | 50.3 |
| AGGAAACAUGAGGAUCACCCAUGUAAAAAUAUGGGAGGAUAUACAAAGACGAAAGUAAGAGUAGAAGGCCUAAAAG [Garnet 16] | 150 |
| AAAAAAUAAAAAAAGGAUAUCUGCAGUACGACAUGAGGAUCACCCAUGUGGUACUGCAGAUAUCAAAAGAAGGAAAAAUAAAAAA [SS2: MS2 52] | 18.1 |
| AUAAAACAUGAGGAUCACCCAUGUGAAAACGUGGGAGGAUAUACGUAGACGAAAGUCGACGUAGAAGGCCUAAAAG [Same State 1.4n.1 (Mat - Mod of Eli - )] | 197 |
| GAAAAACAUGAGGAUCACCCAUGUGACAACAUGGGAGGAUAUACAUGGACGAUAGUCAAAGUAGAAGGCCUAAAAG [Garnet 63] | 24.4 |
| AAGAAACAUGAGGAUCACCCAUGUGUAAAUAUGGGAGGAUAUACAAGGACGUAAGUCAAGGUAGAAGGCCUAAGAA [Mat - Same State 1 - Meechl mod - D137] | 319 |
| AAACAGCACAGGUAGGAUAUGUAGGGUGGUACAUGAGGAUCACCCAUGUAUCCACCCUUCGAAAGGCAGAAGGGCCUGCCGCUGC [Cealaes] | 16.6 |
| GCUGGGCUACACUAGGAUAUGGGUGUCUAAACAUGAGGAUCACCCAUGUGAUGGCAAAACAAAGCUCAGAAGGAGUCGUAGCCCA [Inrionarus] | 22.3 |
| AUAUAUAAAAGGUAGGAUAUUCUAAAAUAAACAUGAGGAUCACCCAUGUAAAAAAAGAAACUCAUGGAGAAGGACCAUAUAUAUA [ss2 6th modifying Eli's mod of Tesla] | 44.5 |
| AUAAAAGAAGCGAAGGAUAUCCAAAAACCAACAUGAGGAUCACCCAUGUAAAGAAAGAAAAAAUGGGAGAAGGUCGCAAAGAAUA [73%, More Fisker Same State 2, D3, 8] | 17.7 |
| AUAUAUAUAAGGUAGGAUAUCCAAUAAACCACAUGAGGAUCACCCAUGUAAAGAAAGAAAAAAUGGGAGAAGGACCAUAUAUAUA [77%, More Tesla, 6] | 27.5 |
| AAUAAGACUAGCAAGGAUAUCGAAAACGAGACAUGAGGAUCACCCAUGUAACGAGUAUAAGUAUACGAGAAGGUGCAGGGUGAAA [JR_SS002_Sub303] | 86.7 |
| AAAAUACAUGAGGAUCACCCAUGUGAAAAUAUGGAAGGAUAUACGAAAAAUAAAUAAAACGUAGAAGGUCUAAAAA [SS! 1 MT 3] | 38.4 |
| GAUUACAUAGUUCAGGAUAUAUGAAUAGUCACAUGAGGAUCACCCAUGUCCAUUUAUAUGGGCACAUAGAAGGGAGGUAGGGAUC [Mat - Same state - Malcolm Mod - D148] | 571 |
| AAAUAAAGGACUGAGGAUAUACCACAUGAAACAUGAGGAUCACCCAUGUUGAAAAACAAAGGGUGGUAGAAGGCAGUCCACAAAC [Same State 2.5c ( so lets mod hyphema)] | 14.1 |

| Sequence | apparent KD of MS2 coat protein [nM] |
| --- | --- |
| GAAAAACAUGAGGAUCACCCAUGUGAGAAUAUGGAAGGAUAUACAAAGACGAGAGUCAAAGUAGAAGGUCUAAAAG [Mat - Same State 1 - Eli mod - D21] | 31.7 |
| AAUAAGACUAGCAAGGAUAUCGAAAACGAGACAUGAGGAUCACCCAUGUAACAAGUAUAAGUAUACGAGAAGGUGCAGGGUGUAA [JR_SS002_Sub302] | 36.9 |
| AAAAAAAAAAGACAGGAUAUCCAAAAGAAAACAUGAGGAUCACCCAUGUAAAAGAAAAUAAAAUGGGAGAAGGGUCAAAAUAAAG [Mat - Same State 2 - JL mod - D74] | 58.2 |
| AGAAUAAAAAGACAGGAUAUCCAAAAGAAAACAUGAGGAUCACCCAUGUAAAGAAAAGAAAAAUGGGAGAAGGGUCAAAAUAAGA [Mat - Same State 2 - JL mod - D59] | 56.3 |
| AGGAGACAUGAGGAUCACCCAUGUGAGAAGAGGCGAGGAUAUCGAAAGAAAGAAGAGAAACGAGAAGGCGCGAGAA [salish99-SS1-017] | 30.3 |
| UGAAAACAUGAGGAUCACCCAUGUAAAAACAUGGGAGGAUAUUGAAAAAAAAAAAAAAAACAAGAAGGCCCAAAAA [crooked] | 25.3 |
| GUGGUGUAGAUACAGGAUAUGUUGCUCGUAACAUGAGGAUCACCCAUGUAUCUAUGAGAUUAAAUGCAGAAGGGUGCACACCACG [Maerveen] | 374 |
| GGAAGACAUGAGGAUCACCCAUGUGGGAAUAUGGGAGGAUAUACAAAGACGAGAGUCAGAGUAGAAGGCCUAGGAG [salish99-ss1-101] | 106 |
| AAAAGACAUGAGGAUCACCCAUGUAAAAACUUGAGAGGAUAUGCUUGAAAAACAUGCUAUGCAGAAGGCUCUAGUC [SS1 - 16] | 28.2 |
| AGGAAACAUGAGGAUCACCCAUGUAAAAAUAUGGGAGGAUAUAGAAAGACGAAAGUCAAACUAGAAGGCCUAAAAG [Garnet 5] | 83.3 |
| AAGAAACAUGAGGAUCACCCAUGUGAGAACAUGGGAGGAUAUACGAAGACGAAAGUCGAAGUAGAAGGCCUAAAAG [Garnet 80] | 24.9 |
| GCAGGGCUAAACUAGGAUAUGGGUGUCUAGACAUGAGGAUCACCCAUGUGAUGGCAAAACAAAGCUCAGAAGGAGUGGUAGCCCA [Quendi] | 75.4 |
| AAAAAACAUGAGGAUCACCCAUGUAAAAAAAUCGCAGGAUAUAGGGUCGCGAAAGCGACCCUAGAAGGGCGAUCCU [Louisiana 2 - Jieux - Same State 1] | 76.1 |
| AAAAUAAAAUAAAAGGAUAUAAAAAAAUAUACAUGAGGAUCACCCAUGUAUAUAAAAAUAAAAUAAAAGAAGGAAUAAAAAUAAA [SS2 506: MS2 6] | 11.1 |
| AAAAAACAUGAGGAUCACCCAUGUAAAAAAAUGGGAGGAUAUACAAAAACGAAAAAAAAAGUAGAAGGCCUGAAAA [same state 8] | 162 |
| AAACCACAUGAGGAUCACCCAUGUGUAAAAAAUACAGGAUAUGGAAACACGAAAGUGAAACCAGAAGGGUGGAAAA [77%, Mat - Mod of Eli, 29] | 28.3 |
| AGGAAACAUGAGGAUCACCCAUGUAAAAGGUGGGUAGGAUAUGCGAAAAGAAAAAGAAAAGCAGAAGGGCCAAGAA [something completely different] | 133 |
| AAACCACAUGAGGAUCACCCAUGUGUAAAAAAUACAGGAUAUGGAAACACGAAAGUGAAACCAGAAGGGUGAAAAA [77%, Mat - Mod of Eli, 30] | 24.3 |
| GAAAAACAUGAGGAUCACCCAUGUAAGAUAAACACAGGAUAUGCGAAAAUAAAUAAAUAAGCAGAAGGGUGAAGAA [Mat - Same State 1 - Tesla mod - 74] | 35.2 |
| AAUAUACAUGAGGAUCACCCAUGUGAAAAUAUGGAAGGAUAUCGUAAAAAAAAAAAAAAACGAGAAGGUCCAAAAA [SS! 1 MT 14] | 30.2 |
| AAACCACAUGAGGAUCACCCAUGUAAAAUUAUGGGAGGAUAUACUAGAAGAAACAAAAUAGUAGAAGGCCUAAAAA [75%, Ex sub1, 33] | 74.2 |
